According to publication PMC12827253, “GADD45β inhibits RIPK3-mediated NF-κB activation by interfering with NEMO-RIPK1-RIPK3 interactions” (Cell Death Discovery, 2025):

Target: T1, human recombinant RIPK3 (human, UniProt Q9Y572 1-518)
T1 construct: RIPK3, human, bought recombinant protein; also called rhRIPK3; source: bought: Mybiosource cod; MBS1442585
Assay: BLI; rhRIPK3 immobilised on AR2G sensor (10 μg/mL in 10 mM NaAc pH 4.5); rhGADD45β as analyte, 3.1–100 nM; 25 mM Tris pH 7.5, 100 mM NaCl, 0.02% Tween 20, 0.1% BSA; 25 °C; 1:1 Langmuir model; apparent
Conditions: both partners purified

T1 sequence (Q9Y572 whole entry): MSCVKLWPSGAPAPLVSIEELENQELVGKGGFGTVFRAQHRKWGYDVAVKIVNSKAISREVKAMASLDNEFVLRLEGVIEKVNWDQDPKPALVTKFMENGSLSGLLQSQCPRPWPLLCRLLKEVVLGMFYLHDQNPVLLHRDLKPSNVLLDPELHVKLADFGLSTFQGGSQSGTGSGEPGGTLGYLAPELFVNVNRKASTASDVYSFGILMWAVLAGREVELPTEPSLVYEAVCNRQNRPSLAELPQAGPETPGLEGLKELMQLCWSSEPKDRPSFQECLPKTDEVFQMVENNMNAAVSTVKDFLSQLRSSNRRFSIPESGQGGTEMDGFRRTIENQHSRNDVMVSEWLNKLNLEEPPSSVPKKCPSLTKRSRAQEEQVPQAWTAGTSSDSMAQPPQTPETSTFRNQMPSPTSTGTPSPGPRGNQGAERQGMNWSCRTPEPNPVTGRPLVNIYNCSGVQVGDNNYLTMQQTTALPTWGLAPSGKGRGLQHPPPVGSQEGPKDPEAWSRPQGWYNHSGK

Kd: 1.73 nM
B1: recombinant human GADD45β (natural protein, UniProt O75293 1-160, looked up)
chain: MTLEELVACDNAAQKMQTVTAAVEELLVAAQRQDRLTVGVYESAKLMNVDPDSVVLCLLAIDEEEEDDIALQIHFTLIQSFCCDNDINIVRVSGMQRLAQLLGEPAETQGTTEARDLHCLLVTNPHTDAWKSHGLVEVASYCEESRGNNQWVPYISLQER
notes: GADD45β, human, recombinant; also called rhGADD45β; Growth Arrest and DNA Damage-inducible beta
